The values that follow come from paper PMC3077382, “14-3-3 Proteins Regulate Exonuclease 1–Dependent Processing of Stalled Replication Forks” (PLoS Genetics, 2011).

The target in the assay is T1, Exo1-Myc (S. cerevisiae, UniProt P39875 1-702).
T1 construct: Saccharomyces cerevisiae Exonuclease 1 (Exo1); C-terminal Myc tag added to the endogenous EXO1 gene; also called yeast Exo1; source: S. cerevisiae (W303-1A background), endogenous EXO1 gene tagged; in whole cell extract; immunoprecipitated from control or HU-treated cells for Far Western; not shown: Myc, C-terminal, kept
T1 sequence (looked up): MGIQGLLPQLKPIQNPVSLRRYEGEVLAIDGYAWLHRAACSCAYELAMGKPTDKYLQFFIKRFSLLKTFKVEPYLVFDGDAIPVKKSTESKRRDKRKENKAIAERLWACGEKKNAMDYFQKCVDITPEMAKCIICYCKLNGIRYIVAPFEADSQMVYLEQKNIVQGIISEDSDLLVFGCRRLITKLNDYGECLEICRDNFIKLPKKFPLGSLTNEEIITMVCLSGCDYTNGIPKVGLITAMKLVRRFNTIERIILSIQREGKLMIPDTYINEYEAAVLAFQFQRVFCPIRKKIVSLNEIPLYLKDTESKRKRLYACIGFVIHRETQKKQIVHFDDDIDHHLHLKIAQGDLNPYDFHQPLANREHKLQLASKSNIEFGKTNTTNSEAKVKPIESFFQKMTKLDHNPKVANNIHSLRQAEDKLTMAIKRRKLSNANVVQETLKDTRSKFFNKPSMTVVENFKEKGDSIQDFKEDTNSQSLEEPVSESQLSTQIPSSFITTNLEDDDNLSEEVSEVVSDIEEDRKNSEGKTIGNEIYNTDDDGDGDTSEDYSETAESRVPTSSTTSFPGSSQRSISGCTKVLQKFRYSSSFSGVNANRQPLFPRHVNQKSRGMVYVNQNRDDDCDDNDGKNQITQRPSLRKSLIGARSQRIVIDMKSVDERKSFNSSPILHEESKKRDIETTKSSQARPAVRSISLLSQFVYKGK
Nature of the assay: far-Western, overlay or dot blot; Exo1-Myc immunoprecipitated from untreated or HU-treated yeast cells, resolved by SDS-PAGE, transferred to PVDF and denatured/renatured; probed with purified GST-Bmh1 (2 µg). As to conditions: both partners purified.

B1: GST-Bmh1 (natural protein, S. cerevisiae, UniProt P29311 1-267, looked up)
chain: MSTSREDSVYLAKLAEQAERYEEMVENMKTVASSGQELSVEERNLLSVAYKNVIGARRASWRIVSSIEQKEESKEKSEHQVELICSYRSKIETELTKISDDILSVLDSHLIPSATTGESKVFYYKMKGDYHRYLAEFSSGDAREKATNASLEAYKTASEIATTELPPTHPIRLGLALNFSVFYYEIQNSPDKACHLAKQAFDDAIAELDTLSEESYKDSTLIMQLLRDNLTLWTSDMSESGQAEDQQQQQQHQQQQPPAAAEGEAPK
notes: Saccharomyces cerevisiae 14-3-3 protein Bmh1; also called purified recombinant GST-Bmh1
As to B1, the binding result is recorded as “binds”.
